Measurements as given in patent US20170145069A1 (Novo Nordisk, published 2017).
*1 amine or outer side, *2 acyl side, *3 side chain or, on linkers, in order; H or OH if unused. Where no end group is shown, it is not given here. Side-chain parts run from the residue outwards. [ ]: non-standard residue; d: D form. The star is where a group is joined. Undecanoyl(11-OPh(4-COOH)) = O=C(O)c1ccc(OCCCCCCCCCCC(=O)*)cc1; Decanoyl(10-(4-HOOC-PhO)) = O=C(O)c1ccc(OCCCCCCCCCC(=O)*)cc1; γGlu = O=C(O)[C@H](CCC(=O)[*:2])N[*:1]; εLys = N[C@@H](CCCCN[*:1])C(=O)[*:2]; 13‑carboxytridecanoyl = C14 diacid; AEEA = NCCOCCOCC(=O)O; Aib = CC(C)(N)C(=O)O

Tests used:
[1] = target: T1, human GLP-1 receptor (human, UniProt P43220 24-463); experiment: cell-based or functional assay
[2] = target: T1, human GLP-1 receptor; experiment: SPA, displacement of 125I-GLP-1(7-36)NH2, BHK membranes, 0.001% HSA
Description: Test compounds, membranes, SPA-particles and [¹²⁵I] ]-GLP-1(7-36)NH₂ were diluted in assay buffer. 50 ul (micro liter) buffer (“low albumin” experiment containing 0.001% HSA) was added to Optiplate, and 25 ul of test compounds were added. 5-10 μg membrane protein/sample was added (50 μl) corresponding to 0.1-0.2 mg protein/ml (to be preferably optimised for each membrane preparation). SPA-particles (Wheatgerm agglutinin SPA beads, Perkin Elmer, #RPNQ0001) were added in an amount of 0.5 mg/well (50 μl). The incubation was started with [¹²⁵I]-GLP-1]-(7-36)NH₂ (final concentration 0.06 nM corresponding to 49.880 DPM, 25 μl). The plates were sealed with PlateSealer and incubated for 120 minutes at 30° C. while shaking. The plates were centrifuged (1500 rpm, 10 min) and counted in Topcounter.
The IC₅₀ value was read from the curve as the concentration which displaces 50% of ¹²⁵I-GLP-1 from the receptor.

[3] = target: T1, human GLP-1 receptor; experiment: cell-based or functional assay; remark: listed apart in the source

Row | Binder | In vitro potency (CRE-luciferase) low albumin EC50 [1] | IC50 [2] | In vitro potency (AlphaScreen cAMP; membranes) EC50 [3]
1 | HXEGTFTSDVSSYLEGQAAKEFIAHLVQGRK (Aib at 8; eps-amino of Lys26 and Lys37 each acylated with 10-(4-carboxyphenoxy)decanoyl-gGlu-Ser-Ser-Gly-Ser-Ser-Gly) | 23 pM | 8990 pM | 116 pM
2 | HXEGTFTSDVSSYLEGQAAKEFIAWLVHGRK (Aib at 8; eps-amino of Lys26 and Lys37 each acylated with 13-carboxytridecanoyl-gGlu-Ser-Ser-Gly-Ser-Ser-Gly) | 9.8 pM | 4610 pM | 145 pM
3 | HXEGTFTSDVSSYLEGQAAKEFIAWLVRGRK (Aib at 8; eps-amino of Lys26 and Lys37 each acylated with 12-(4-carboxyphenoxy)dodecanoyl-gGlu-Ser-Gly-Ser-eps-Lys) | 5 pM | 270 pM | 238 pM
4 | H[Aib]EGTFTSDVSK([εLys-Ser-Ser-Ser-Ser-Ser-Ser-γGlu-Undecanoyl(11-OPh(4-COOH))])YLEGQAAK([εLys-Ser-Ser-Ser-Ser-Ser-Ser-γGlu-Undecanoyl(11-OPh(4-COOH))])EFIAWLVQGRG | 11 pM | 420 pM | 181 pM
5 | H[Aib]EGTFTSDVSK([AEEA-AEEA-γGlu-Decanoyl(10-(4-HOOC-PhO))])YLEGQAAK([AEEA-AEEA-γGlu-Decanoyl(10-(4-HOOC-PhO))])EFIAWLVQGRG [Comparative compound of Example 9a: Compound of Example 92, Chem. 111, in WO 2012/062803] | – | 8090 pM | 1590 pM
6 | H[Aib]EGTFTSDVSK([Gly-Ser-Ser-Gly-Ser-Ser-γGlu-Undecanoyl(11-OPh(4-COOH))])YLEGQAAK([Gly-Ser-Ser-Gly-Ser-Ser-γGlu-Undecanoyl(11-OPh(4-COOH))])EFIAWLVQGRG | 5.6 pM | 370 pM | –
7 | H[Aib]EGTFTSDVSK([AEEA-AEEA-γGlu-13‑carboxytridecanoyl])YLEGQAAK([AEEA-AEEA-γGlu-13‑carboxytridecanoyl])EFIAWLVQGRG [Comparative compound of Example 22a: Compound of Example 141, Chem. 189, in WO 2012/062803] | 174 pM | 48400 pM | 1140 pM
8 | HAEGTFTSDVSSYLEGQAAK([AEEA-AEEA-γGlu-Decanoyl(10-(4-HOOC-PhO))])EFIAHLVQGRK([AEEA-AEEA-γGlu-Decanoyl(10-(4-HOOC-PhO))]) [Comparative compound of Example 3a: Compound of Example 33, Chem. 52, in WO 2011/080103] | 124 pM | 51500 pM | 506 pM
9 | H[Aib]EGTFTSDVSK([Ser-Ser-Ser-Ser-Ser-Ser-γGlu-Undecanoyl(11-OPh(4-COOH))])YLEGQAAK([Ser-Ser-Ser-Ser-Ser-Ser-γGlu-Undecanoyl(11-OPh(4-COOH))])EFIAWLVQGRG | 8.3 pM | 540 pM | 146 pM
10 | H[Aib]EGTFTSDVSK([εLys-Gly-Ser-Ser-Gly-Ser-Ser-γGlu-Undecanoyl(11-OPh(4-COOH))])YLEGQAAK([εLys-Gly-Ser-Ser-Gly-Ser-Ser-γGlu-Undecanoyl(11-OPh(4-COOH))])EFIAWLVQGRG | – | 480 pM | 89 pM
11 | H[Aib]EGTFTSDVSK([εLys-Gly-Ser-Ser-Gly-Ser-Ser-Gly-Ser-Ser-Gly-Ser-Ser-γGlu-Undecanoyl(11-OPh(4-COOH))])YLEGQAAK([εLys-Gly-Ser-Ser-Gly-Ser-Ser-Gly-Ser-Ser-Gly-Ser-Ser-γGlu-Undecanoyl(11-OPh(4-COOH))])EFIAWLVQGRG | – | 2270 pM | 350 pM
12 | HXEGTFTSDVSSYLEGQAAKEFIAHLVQGRGK (Aib at 8; eps-amino of Lys26 and of the added C-terminal Lys (position 38) each acylated with 10-(4-carboxyphenoxy)decanoyl-gGlu-Ser-Ser-Gly-Ser-Ser-Gly) | – | 12800 pM | 381 pM
13 | H[Aib]EGTFTSDVSK([AEEA-AEEA-γGlu-13‑carboxytridecanoyl])YLEEQAVREFIAK([AEEA-AEEA-γGlu-13‑carboxytridecanoyl])LVRGRG [Comparative compound of Example 6a: Compound of Example 74, Chem. 93, in WO 2012/062803] | 62 pM | 800 pM | 62 pM
14 | H[Aib]EGTFTSDVSK([Gly-Ser-Ser-Gly-Ser-Ser-Gly-Ser-Ser-Gly-Ser-Ser-γGlu-Undecanoyl(11-OPh(4-COOH))])YLEGQAAK([Gly-Ser-Ser-Gly-Ser-Ser-Gly-Ser-Ser-Gly-Ser-Ser-γGlu-Undecanoyl(11-OPh(4-COOH))])EFIAWLVQGRG | 29 pM | 1340 pM | 171 pM
